Reference: patent US7727960B2, “C5a receptor antagonists” (Jerini AG, priority 2003, dated 2010)

Molecular target: T1, human C5aR (CD88) (human, UniProt P21730 1-350)
T1 sequence (looked up): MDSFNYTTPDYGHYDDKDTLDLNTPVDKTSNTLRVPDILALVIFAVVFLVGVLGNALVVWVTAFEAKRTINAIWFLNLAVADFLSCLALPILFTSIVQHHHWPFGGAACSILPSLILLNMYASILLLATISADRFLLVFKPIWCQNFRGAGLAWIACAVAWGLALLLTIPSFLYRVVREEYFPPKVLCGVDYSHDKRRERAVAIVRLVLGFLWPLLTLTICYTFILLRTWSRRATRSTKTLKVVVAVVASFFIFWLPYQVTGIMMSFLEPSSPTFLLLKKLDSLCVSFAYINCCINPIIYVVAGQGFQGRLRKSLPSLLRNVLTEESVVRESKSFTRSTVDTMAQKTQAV
Assay: cell-based or functional assay

| Substance | IC50 activity group, enzyme release assay [nM] | EC50, agonistic activity, enzyme release assay [nM] | IC50, functional assay [nM] |
| --- | --- | --- | --- |
| H2N-CO-Phe-Orn-Pro-cha-Bta-Phe-NH2 (peptide) | < 50 | – | – |
| Ac-Phe-Orn-Aze-hle-Bta-Phe-NH2 (peptide) | < 50 | – | – |
| Ac-Phe-Orn-Pro-cha-Bta-2Ni-NH2 (peptide) | < 50 | – | – |
| H-Phe-[Lys-Hyp-hle-Pff-Nle] (peptide) | < 200 | – | – |
| FAc-Phe-Orn-Pro-cha-Bta-Phe-NH2 (peptide) | < 50 | – | – |
| 3PP-[Orn-Hyp-cha-Trp-Nle] (peptide) | < 50 | – | – |
| Ac-Phe-Orn-NMS-cha-Bta-Phe-NH2 (peptide) | < 200 | – | – |
| Ac-Phe-Orn-Pro-hle-Bta-1Ni-NH2 (peptide) | < 200 | – | – |
| H-Phe-[Orn-Hyp-hle-Trp-Hle] (peptide) | < 200 | – | – |
| Ac-Phe-Orn-Tic-cha-Trp-Phe-OH (peptide) | < 2000 | – | – |
| Ac-Phe-Ffa-Aze-cha-Bta-Phe-NH2 (peptide) | < 50 | – | – |
| H-Phe-[Orn-Hyp-hle-Trp-Phe] (peptide) | < 50 | – | – |
| Ac-Phe-[Orn-Hyp-hle-Pff-Phe] (peptide) | < 200 | – | – |
| Ac-Phe-Orn-Aze-cha-Pcf-Phe-NH2 (peptide) | < 2000 | – | – |
| Ac-Phe-Fco-Pro-cha-Bta-Phe-NH2 (peptide) | < 50 | – | – |
| H-Phe-[Orn-Pro-hle-Pff-Nle] (peptide) | < 200 | – | – |
| Ac-Phe-Ffa-Pro-cha-Bta-Phe-NH2 (peptide) | < 50 | – | – |
| Ac-Phe-Orn-Pro-hle-Bta-Chg-NH2 (peptide) | < 200 | – | – |
| Ac-Phe-Orn-Hyp-hle-Bta-Phe-NH2 (peptide) | < 200 | – | – |
| Ac-Phe-Orn-Pro-ctb-Bta-Phe-NH2 (peptide) | < 50 | – | – |
| Ac-Phe-Dab-Aze-hle-Bta-Phe-NH2 (peptide) | < 50 | – | – |
| H-Phe-[Orn-Pro-hle-Pff-Phe] (peptide) | < 50 | – | – |

| Substance | IC50 activity group, enzyme release assay [nM] | EC50, agonistic activity, enzyme release assay [nM] | IC50, functional assay [nM] |
| --- | --- | --- | --- |
| Ac-Ala-Phe-Orn-Aze-cha-Bta-Phe-NH2 (peptide) | < 50 | – | – |
| Ac-Thi-Orn-Pro-cha-Trp-Phe-NH2 (peptide) | < 200 | – | – |
| Ac-Phe-[Orn-Hyp-hle-Pff-Nle] (peptide) | < 200 | – | – |
| Ac-Phe-Orn-Pro-cha-Bta-Phe-NH2 (peptide) | < 50 | > 100000 | – |
| Ac-Ebw-Orn-Pro-cha-Trp-Phe-NH2 (peptide) | < 200 | > 100000 | – |
| Ac-Phe-Orn-Pip-cha-Trp-Phe-OH (peptide) | < 2000 | – | – |
| Ac-Phe-[Orn-Tic-cha-Trp-Nle] (peptide) | < 200 | – | – |
| Ac-Phe-Mpa-Pro-cha-Bta-Phe-NH2 (peptide) | < 200 | – | – |
| Ac-Phe-Orn-Pro-hle-Mcf-2Ni-NH2 (peptide) | < 200 | – | – |
| Ac-Phe-Orn-Pro-hle-Bta-5Ff-NH2 (peptide) | < 200 | – | – |
| Ac-Phe-[Orn-Ser-cha-Trp-Nle] (peptide) | < 200 | – | – |
| Ac-Phe-[Orn-Hyp-Mmf-Trp-Phe] (peptide) | < 200 | – | – |
| H-Phe-[Orn-Ser-cha-Trp-Nle] (peptide) | < 50 | > 1430 | – |
| Ac-Phe-Orn-Pro-hle-Bta-Aic-NH2 (peptide) | < 200 | – | – |
| Ac-Phe-[Orn-Thr-cha-Trp-Nle] (peptide) | < 200 | – | – |
| (-CO-CH2-CH2-CO-)-Phe-Orn-Pro-cha-Bta-Phe-NH2 (peptide) | < 2000 | – | – |
| Ac-Phe-Orn-Aze-cha-Bta-Phe-NH2 (peptide) | < 20 | – | – |
| Ac-Phe-[Orn-Aze-cha-Trp-Nle] (peptide) | < 200 | – | – |
| Ac-Phe-Guf-Pro-cha-Bta-Phe-NH2 (peptide) | < 50 | – | – |
| Ac-Phe-Ffa-Pro-hle-Bta-Phe-NH2 (peptide) | < 20 | – | – |
| H-Phe-[Orn-Hyp-hle-Trp-Nle] (peptide) | < 50 | – | – |

Second part, the substance after the results:

| IC50 activity group, enzyme release assay [nM] | EC50, agonistic activity, enzyme release assay [nM] | IC50, functional assay [nM] | Substance |
| --- | --- | --- | --- |
| < 20 | – | – | Ac-Thi-Orn-Aze-cha-Bta-Phe-NH2 (peptide) |
| < 50 | – | – | Ac-Thi-Orn-Pro-cha-Bta-Phe-NH2 (peptide) |
| < 200 | – | – | Ac-Phe-[Orn-Pro-cha-Pff-Nle] (peptide) |
| < 200 | – | – | Ac-Phe-Orn-Pro-cha-Bta-Opa-NH2 (peptide) |
| < 200 | – | – | Ac-Phe-[Orn-Pro-hle-Pff-Phe] (peptide) |
| < 200 | – | – | Ac-Phe-Cit-Ser-hle-Bta-Phe-NH2 (peptide) |
| < 200 | – | – | H-Phe-[Orn-Hyp-hle-Pff-Chg] (peptide) |
| < 200 | – | – | Ac-Thi-[Orn-Pro-hle-Bta-Phe] (peptide) |
| < 200 | – | – | Ac-Phe-OrE-Pro-cha-Bta-Phe-NH2 (peptide) |
| < 2000 | – | – | Ac-Phe-Orn-Aze-cha-Bta-Phe-NH-Me (peptide) |
| < 50 | – | – | Ac-Phe-Orn-Pro-ctb-Pff-Phe-NH2 (peptide) |
| < 200 | – | – | H-Phe-Cit-Pro-hle-Bta-Phe-NH2 (peptide) |
| < 200 | – | – | Ac-Phe-[Orn-Pro-cha-Pff-Phe] (peptide) |
| < 200 | – | – | Ac-Phe-OrA-Pro-cha-Bta-Phe-NH2 (peptide) |
| < 20 | – | – | Ac-Phe-Orn-Pro-cha-Bta-Mff-NH2 (peptide) |
| < 200 | – | – | Ac-Phe-Orn-Aze-cha-Pff-Phe-NH2 (peptide) |
| < 20 | – | – | Ac-Phe-Orn-Pro-cha-Bta-Thi-NH2 (peptide) |
| < 50 | – | – | Ac-Phe-[Orn-Hyp-hle-Trp-Phe] (peptide) |
| < 200 | – | – | Ac-Phe-Orn-Pro-hle-Bta-Cha-NH2 (peptide) |
| < 200 | – | – | Ac-Phe-[Orn-Hyp(COCH2OCH2CH2OCH2CH2OCH3)-cha-Trp-Nle] (peptide) |
| < 200 | – | – | H-Phe-[Orn-Pro-cha-Pff-Nle] (peptide) |
| < 200 | – | – | 3PP-Orn-Aze-cha-Bta-Phe-NH2 (peptide) |
| < 50 | – | – | Ac-Phe-Orn-Pro-ctb-Eaa-Phe-NH2 (peptide) |
| < 200 | – | – | Ac-Phe-Ech-Pro-cha-Bta-Phe-NH2 (peptide) |
| < 200 | – | – | Ac-Mff-Orn-Pro-cha-Bta-Phe-NH2 (peptide) |
| < 200 | – | – | H-Phe-[Orn-Hyp-hle-Pff-Nle] (peptide) |

| IC50 activity group, enzyme release assay [nM] | EC50, agonistic activity, enzyme release assay [nM] | IC50, functional assay [nM] | Substance |
| --- | --- | --- | --- |
| < 50 | – | – | CH3CH2CO-Phe-Orn-Pro-cha-Bta-Phe-NH2 (peptide) |
| < 200 | – | – | Ac-Phe-Orn-Pro-hle-Bta-Pcf-NH2 (peptide) |
| < 50 | – | – | H-Phe-[Orn-Ser-hle-Trp-Nle] (peptide) |
| < 50 | – | 25 | Ac-Phe-[Orn-NMeAla-cha-Trp-Arg] (peptide) |
| < 50 | – | – | H-Phe-[Orn-Pro-hle-Mcf-Phe] (peptide) |
| < 2000 | – | – | Ac-Phe-Orn-Hyp-cha-Trp-Phe-NH2 (peptide) |
| < 200 | – | – | Ac-Phe-Orn-Pro-cha-1Ni-Phe-NH2 (peptide) |
| < 200 | – | – | Ac-Phe-Orn-Hse-cha-Bta-Phe-NH2 (peptide) |
| < 20 | – | – | Ac-Gly-Phe-Orn-Aze-cha-Bta-Phe-NH2 (peptide) |
| < 50 | > 1430 | – | Ac-Phe-[Orn-Hyp-cha-Trp-Phe] (peptide) |
| < 50 | – | – | Ac-Eby-Orn-Pro-cha-Bta-Phe-NH2 (peptide) |
| < 200 | – | – | Ac-Phe-Orn-Pro-Cha-Bta-NH-NBn-CO-NH2 (peptide) |
| < 200 | – | – | Ac-Mmy-Orn-Pro-hle-Pff-Phe-NH2 (peptide) |
| < 50 | – | – | H-Phe-[Orn-Hyp-cha-Trp-Nle] (peptide) |
| < 50 | – | – | Ac-Phe-Bta-Aze-cha-Bta-Phe-NH2 (peptide) |
| < 50 | – | – | Ac-Cit-Phe-Orn-Aze-cha-Bta-Phe-NH2 (peptide) |
| < 200 | – | – | Ac-Phe-Dap-Pro-cha-Bta-Phe-NH2 (peptide) |
| < 200 | – | – | Ac-Phe-Orn-Pro-hle-Egc-Phe-NH2 (peptide) |
| < 200 | – | – | Ac-NMF-Orn-Pro-cha-Bta-Phe-NH2 (peptide) |
| < 200 | – | – | H-Phe-[Orn-Ser-hle-Ocf-Nle] (peptide) |
| < 200 | – | – | Ac-Phe-Eep-Pro-cha-Bta-Phe-NH2 (peptide) |
| < 50 | > 100000 | – | Ac-Phe-Orn-Pip-cha-Trp-Phe-NH2 (peptide) |
| < 200 | – | – | H-Phe-[Orn-Hyp-hle-Mcf-Leu] (peptide) |
| < 50 | – | – | CH3-SO2-Phe-Orn-Aze-cha-Bta-Phe-NH2 (peptide) |
| < 50 | – | – | Ac-Off-Orn-Pro-cha-Bta-Phe-NH2 (peptide) |
| < 50 | – | – | Ac-Phe-Orn-Pro-cha-Bta-Pmf-NH2 (peptide) |
